# Experimental data from the DeepSol protein solubility set.
# Test: soluble on expression in E. coli; label from the status in PepcDB or PDB records
row,Sequence,soluble on expression in E. coli
1,MGKYFGTDGVRGVANQELTPELAFKLGRYGGYVLAHNKGEKHPRVLVGRDTRVSGEMLESALIAGLISIGAEVMRLGIISTPGVAYLTRDMGAELGVMISASHNPVADNGIKFFGSDGFKLSDEQENEIEALLDQENPELPRPVGNDIVHYSDYFEGAQKYLSYLKSTVDVNFEGLKIALDGANGSTSSLAPFLFGDLEADTETIGCSPDGYNINEKCGSTHPEKLAEKVVETESDFGLAFDGDGDRIIAVDENGQIVDGDQIMFIIGQEMHKNQELNNDMIVSTVMSNLGFYKALEQEGIKSNKTKVGDRYVVEEMRRGNYNLGGEQSGHIVMMDYNTTGDGLLTGIQLASVIKMTGKSLSELAGQMKKYPQSLINVRVTDKYRVEENVDVKEVMTKVEVEMNGEGRILVRPSGTEPLVRVMVEAATDEDAERFAQQIADVVQDKMGLDK,not soluble
2,MGLALQHSHRWDLSPREAANLQTRLRPLVLAEDALPDEIRTVAGVDVGFEDHGRITRAAVAVLDFPSLRPSDQAIVRRPTRFPYVPGLLSFRELPALLEALERLNLLPGLILVDGHGYAHPRRFGIACHLGVLTGIPTIGVGKTRLVGTHGELAEDRGSWIPLIDGDETVGAVVRTRRGVQPVYVSVGHRLSLPTAVDWVLRCTPRYRLPETTRQAHRLASALEHHHHHH,not soluble
3,MGLGRVITRSLSSVEPALSQKLTIQPAIERSPTDLLNALSETVGPDTTAPHFAYIDDPITIPSTQSTKKTYFMAKEFGKRAARELATEWPTLFAFDRDQPQLPVFRPRHLADPLQVEPTENNLLKMISSREVKDSCILYERMRSENVDVSEKVQLELFRLVTYYNSSNVPFAEWEEFVGMRNFGEDSTSSWKSGAVADLLFETLPKTDETVSIMIAGLCKFSDHSSLERARELYKEHRAAKGKVYREAFNGLIGASSYSVGKKLVAEMISLRMTPDIFTFNALLSSAAKAGKFEDRVKAFTEIIGEMKEIGVEPALSSFHLIIKNIIDFKLLDNEKRESDEQKKTYNHQLTVAISWLNEIQNSLTGKTLKPITSTCNLFFVEAMGIHYRAANENLAENLVSIYESKANEVKMPAFTIESMFYNRQLQLAVEQSASLNRIYDLYTTMVPRLVGVNNYLSSLVFRKLAASSDRHWPLLRRVIIDGIAAGQMNGVIGEEMRKQLCNVQLHTLGTSEREQFTSLVQKLVAVWVEFSQFTEERMRRLQRKLSPSQISECALLLTRIGEQQKAYELLDLLLDETASSGDEATVYPRGHARPWAMAELFEDALRKRDTYAAATCLQIMSLTANRAKLEPLANRIFEKCNVNQEQVRIIQGFIRLRPQ,not soluble
4,MGLMKKFRDYFLEEDYEDYDEEYEAPQPEEEAPPKTAGKANVVSLQSVQKSAKVVLAEPRVYAEAQEIADHLKSRRAVIVNLQRIQHEQAKRIVDFLSGTVYAIGGDIQQVGTKIFLCTPENVDVSGSISLDGEDDRPMKRW,not soluble
5,MGLQFAYLPVEIGQVSDEKCSAFHQLMATLPGPVLAFCNSGNRARALYSRDVGTTTTPAETISAACDWEHEAAAVTEAESEAAGAAAVSAASSRDEAAGKSIPVTPACNWDNAFDIVVVGGGSAGLGVTASLLRRRSSLRIAIIEPNDKHYYQPAWTLVGGGAYAVDQTVRNTADVIPHGAEWIKAEVSGFSPNDNLVHLADGRTIGYQQLIVCPGIRLAWEKIEGIQETLGKNGVTSNYLFDLAPYTWSLTQQLKGGKALFTQPPMPIKCAGAPQKAMYLSCDYWQRQGVLDKIEVEFDSAGAVLFGVADFVPPLMEYVRKYHANLVFNSNLVKVNGPEKIATFEIKNEAGEVTRVDKPFDMLHVTPPQAAPDFLRDSPLADASGYCEVNPKTLQHTRFANIFSLGDACSSPNTKTAAAVRKQIVIVAENLLAAKDGREFHAVYDGYGACPLTVENGKVVLAEFGFGGKLLPTFPLNPAVARKLYWWFKVKLFPWLYWEGLEHHHHHH,not soluble
6,MGLSPHVEALQVLQTALQTGEGFIKVTGEVGTGKTLICRKLINELPQGFHCAYLPNPYLTPAELRWAVANELGLKYTSEIDQQQLTGLIQQQLLALSTHGHAIVLVLDEAQALPDESLEALRLFTNLETESRKLLQVVLFGQPELDERLKRQAFRQLRQRITFSYNLRPLEHHHHHH,not soluble
7,MGMEYSFGFTKIDEAQKQSMVDGVFHSVAENYDKMNDILSLGLHRMWKNSMVAWLSPPAVFHWKVLDVAGGTGDIAFRILNASRQKAHATVLDINGSMLSVGKKRAEKNGLAPLIDFVEANAEHLPFEDQSFDAYTIAFGIRNVPHIDQALREAFRVLKPGGRFLCLEFSNVEMPLLDKIYDLWSFHAIPKLGQLIANDGDAYRYLVESIRKFPKQDDFAHMINHVGFSRVSYRNLTGAIAALHSAWKILEHHHHHH,not soluble
8,MGNIANEAKLLKLDGKAYRNDFMLGNGKGHARDNLSRQRPGTSKRLSCSQLESLYSSNSMAKNIVDIPAEDLTRNGWSLKMQDDKVKALYESKLRQLKAKERLQQLFTYERLYGDGFVSIGTIEKREYSLSEPLDFENIKSVPYINAFSGKKISNRIIDEDVFSPNYGQIESFEVNNRSNNSRIHLLNNTTYSRATTIHRSRVLHQQNLRFEDELEGSSLLENLYDILTVADTSVWSVGQILYDFIFKVYKSADVRSLTPQDKLEIETKMDYQFRTEAIAIIDKEESLGKESSSVAGIGELLDFVWDYLAGAARMPKTVLKGQEGGTVTGAQYDVMNYYSRITAIQENQLRPHLEYLMRCLMWAEDECGGRLDPDSIEWSVEFNPLWNVDSKTDAEIRKLTAETDKIYIEAGVSDPDDVHEARFGRFGITETSKFNADSLSRDELDKMAAVVYENYKQDRDNEK,not soluble
9,MGNILIVKLSRRELSYLLSVKKYNDEGKPAKLSWISKDLNVSVASAYEEISHLESKGFLKKSDKGIFITDEGKKAIDSLLRAHRVIETFLVKIGLSPDQACNYTKQFDYSVPDEVIERIYEYLGKPEKCPHGENIPY,soluble
10,MGNNTIGARKSTTSKFWKCRSCIASRTTESRNNSIIQQRRNFIIRTKKEIPFPKRGASKDSCGSCHNQKNLIVCHLFLFKNHKKLFF,not soluble
11,MGNSCQNGTYGNNYQNSNRFQNDRFASRYVDGNDTEDCYSGSSRASLAGALRQGLNLKSPVLGYKTPNVRELYTLGRELGQGQFGKTYLCTEISTGCQYACKTILKSNLRCVSDIEDVRREIQIMHHLSGQKNIVTIKDTYEDEQAVHIVMELCAGGELFSKIQKRGHYSERKAAELIKIIVGIIETCHSHGVMHRDLKPENFLLLDADDEFSVKAIDFGLSVFFRPGQVFREVVGSPYYIAPEVLEKRYGPEADIWTAGVILYVLLTGVPPFWADTQSGIYEKVLDGRIDFKSNRWPRISDSAKDLIKKMLCPYPSERLKAHEVLKHPWICDNGVATNRALDPSVLPRLKQFSAMNRLKKLSLQIIAERLSEEEIVGLREMFKAMDTKNRSVVTFGELKGLKRYSSVFKDTEINDLMEAADDTTSTINWEEFIAAAVSLNKIEREKHLMAAFTYFDKDGSGFITVDKLQKACMERNMEDTFLEEMILEVDQNNDGQIDYAEFVTMMQSNNFGLGWQTVESSLNVALREAPQVY,not soluble
12,MGPQSDSRTLISTYSQQSFQQFSFEYCYHSNTPSLPFSAIFSLYWLLHPFSASTGFSKGPQSDYRTLISTYYQQSFQQFSFEYCYHSNTPSLVSLFFSHLQPFLAIFSHFQPFSASAGFSKGPQSDSRTLISTYSQQSFQQFSFEYCCLSNTRSLVSLF,not soluble
13,MGQCLGTLCTVDSATDNISSVYQLAGPVAVKESPRIAERDPKVKISVNPEEENVERPCVLYSKSNEIIKKPDIFEEIYKRTPITLSNNGRIDVAELPAGQRVIEVENNEVRDKYKKTLYEIRRKCRELQNLGAEDEETGEIIDTLLILYKDFFLLTTWKIDKYAQLRKNAAVQAYNSLPKLRADPAEFRCHVEFQYRVANELWEHFKETYIHKYEACNWAERAKVKEWDLLDSQVQTPNVEWDYLGAHGYI,not soluble
14,MGRAFEYRRAAKEKRWDKMSKVFPKLAKAITLAAKDGGSEPDTNAKLRTAILNAKAQNMPKDNIDAAIKRASSKEGNLSEITYEGKANFGVLIIMECMTDNPTRTIANLKSYFNKTQGASIVPNGSLEFMFNRKSVFECLKNEVENLKLSLEDLEFALIDYGLEELEEVEDKIIIRGDYNSFKLLNEGFESLKLPILKASLQRIATTPIELNDEQMELTEKLLDRIEDDDDVVALYTNIELEHHHHHH,soluble
15,MGRIIILDENTANQIAAGEVVERPASVVKELVENSIDAGSTNISVEINNGGISFIKVVDNGSGIEEDDIEIAFERHATSKIRRASDLEAITSLGFRGEALASIASVSTVEVTSRPAHREYGRYVKIQGGTVLESGQVGCPAGTTFIVRDLFYNTPARFKFLKKDSTEAGYVSDIVSRIALGNPDISFRLINNKNTVIHTPGNNDLLSTIYSLYGKETAKECMEISYEDETVKITGYAGSPEIARANRNYQSIYLNKRYIKNKVISSAIDEAYKTYLMKNKFAFIVLYIELNPLLVDVNVHPTKMEVRFSREQEIFRAVYHAVNNALLSKTHIRNVSLKDSPKNYFKFEQSSKKEADYVQQRLDTDRKFSGYNYDEDFKTEKTNTSKSTWENLIVKESANINKRKDETIDEVINKNEVGDKNKVISEDEVINKDEVINKDKVINKDKVINKGEVVNKVNVNEVENESVDNLINGQISGLVNWAINEPINKTNDKLIEKSDGTALKGTGEECYNFDKSGYDNILKDVSDKPKDNRNDVDNNADTNFEKIRDGKDTRPQQDIERNVFLDARIIGQVFSTYILLQNEDDLIIIDQHAAHERIRFEELKEKYARNESLAQYLLTPVVIELTNQEIVFLEEEKELFNKLGFIFESFGNNSIILRSVPIPDEGVGVKEAFLEVVDFLMSKGRKYDKIIEEDALYQIACKSAVKANKKLDEIEIKAILDKLNMLQNPYTCPHGRPTVVKITKYEFEKMFKRIV,not soluble
16,MGRIISSYIFPHPPLIVPEIGKGDEKGAIKTIEACEKAAEQIRKEKPSTIILTTSHAPLFEDYIFINDHKTLKGNFSRFGARKVELGFENNLKMVESIIEFAKKEGFDAGGISEGIGRRYGISGELDHGALVPLYYISRVYSDFKLVHVAMSTLTLEEHYKFGMCIGEAVRNSDEDVVFVASGDLAHRLTSDGPYGYNKHAPEFDELLVKSIEKDDIDRILDIDDKLRDEAAECGLRSFVIMLGALDGYSVVPEVYSYEGPFGVGYMVARIGVGAMDSSRRIIENRRNKRKKSTDPYVSLAKRALEAYVTEGRVLDDYSGLPEEMLNSRAGTFVSIKKKGELRGCIGTIGPTRKNIASEIVHNAISAGTSDPRFYPVKPYELDELEYSVDVLMEPEEINSMDELDVVKYGVIVRAGRRTGLLLPNLENVNTVEQQVSIALQKAGISPNEKYTMERFEVIRHK,not soluble
17,MGRIKQMTPNVMRLLKACFVEQIPDEVCDEFHLKKDTEHMILITKDGGMPISKIKPLSDSQVLSVLSQILLSLYIGKRELQFSHNDLNPGNLLISETKKKSISYKKDGKSIKIKSHGRFLTLIDLQKSTFDEKEDKGLDCWKLNSRVRDQFLPLVKEDTKKILAKVAEEIEKTTILDWKLPGMLPIQ,not soluble
